B1: Myc-PKR (enzyme, UniProt P19525 1-551, looked up)
chain: MAGDLSAGFFMEELNTYRQKQGVVLKYQELPNSGPPHDRRFTFQVIIDGREFPEGEGRSKKEAKNAAAKLAVEILNKEKKAVSPLLLTTTNSSEGLSMGNYIGLINRIAQKKRLTVNYEQCASGVHGPEGFHYKCKMGQKEYSIGTGSTKQEAKQLAAKLAYLQILSEETSVKSDYLSSGSFATTCESQSNSLVTSTLASESSSEGDFSADTSEINSNSDSLNSSSLLMNGLRNNQRKAKRSLAPRFDLPDMKETKYTVDKRFGMDFKEIELIGSGGFGQVFKAKHRIDGKTYVIKRVKYNNEKAEREVKALAKLDHVNIVHYNGCWDGFDYDPETSDDSLESSDYDPENSKNSSRSKTKCLFIQMEFCDKGTLEQWIEKRRGEKLDKVLALELFEQITKGVDYIHSKKLIHRDLKPSNIFLVDTKQVKIGDFGLVTSLKNDGKRTRSKGTLRYMSPEQISSQDYGKEVDLYALGLILAELLHVCDTAFETSKFFTDLRDGIISDIFDKKEKTLLQKLLSKKPEDRPNTSEILRTLTVWKKSPEKNERHTC
notes: not shown: Myc tag
B2: GFP-PKR (enzyme, UniProt P19525 1-551, looked up)
chain: B1 chain
notes: not shown: GFP
B3: endogenous PACT (other, UniProt O75569 1-313, looked up)
chain: MSQSRHRAEAPPLEREDSGTFSLGKMITAKPGKTPIQVLHEYGMKTKNIPVYECERSDVQIHVPTFTFRVTVGDITCTGEGTSKKLAKHRAAEAAINILKANASICFAVPDPLMPDPSKQPKNQLNPIGSLQELAIHHGWRLPEYTLSQEGGPAHKREYTTICRLESFMETGKGASKKQAKRNAAEKFLAKFSNISPENHISLTNVVGHSLGCTWHSLRNSPGEKINLLKRSLLSIPNTDYIQLLSEIAKEQGFNITYLDIDELSANGQYQCLAELSTSPITVCHGSGISCGNAQSDAAHNALQYLKIIAERK
notes: also called PRKRA
B4: GFP-PACT (other, UniProt O75569 1-313, looked up)
chain: B3 chain
notes: not shown: GFP
B5: ALIX (cellular) (other, UniProt Q8WUM4 2-868, looked up)
chain: ATFISVQLKKTSEVDLAKPLVKFIQQTYPSGGEEQAQYCRAAEELSKLRRAAVGRPLDKHEGALETLLRYYDQICSIEPKFPFSENQICLTFTWKDAFDKGSLFGGSVKLALASLGYEKSCVLFNCAALASQIAAEQNLDNDEGLKIAAKHYQFASGAFLHIKETVLSALSREPTVDISPDTVGTLSLIMLAQAQEVFFLKATRDKMKDAIIAKLANQAADYFGDAFKQCQYKDTLPKEVFPVLAAKHCIMQANAEYHQSILAKQQKKFGEEIARLQHAAELIKTVASRYDEYVNVKDFSDKINRALAAAKKDNDFIYHDRVPDLKDLDPIGKATLVKSTPVNVPISQKFTDLFEKMVPVSVQQSLAAYNQRKADLVNRSIAQMREATTLANGVLASLNLPAAIEDVSGDTVPQSILTKSRSVIEQGGIQTVDQLIKELPELLQRNREILDESLRLLDEEEATDNDLRAKFKERWQRTPSNELYKPLRAEGTNFRTVLDKAVQADGQVKECYQSHRDTIVLLCKPEPELNAAIPSANPAKTMQGSEVVNVLKSLLSNLDEVKKEREGLENDLKSVNFDMTSKFLTALAQDGVINEEALSVTELDRVYGGLTTKVQESLKKQEGLLKNIQVSHQEFSKMKQSNNEANLREEVLKNLATAYDNFVELVANLKEGTKFYNELTEILVRFQNKCSDIVFARKTERDELLKDLQQSIAREPSAPSIPTPAYQSSPAGGHAPTPPTPAPRTMPPTKPQPPARPPPPVLPANRAPSATAPSPVGAGTAAPAPSQTPGSAPPPQAQGPPYPTYPGYPGYCQMPMPMGYNPYAYGQYNMPYPPVYHQSPGQAPYPGPQQPSYPFPQPPQQSYYPQQ
notes: also called PDCD6IP
B6: endogenous PKR (enzyme, UniProt P19525 2-551, looked up)
chain: AGDLSAGFFMEELNTYRQKQGVVLKYQELPNSGPPHDRRFTFQVIIDGREFPEGEGRSKKEAKNAAAKLAVEILNKEKKAVSPLLLTTTNSSEGLSMGNYIGLINRIAQKKRLTVNYEQCASGVHGPEGFHYKCKMGQKEYSIGTGSTKQEAKQLAAKLAYLQILSEETSVKSDYLSSGSFATTCESQSNSLVTSTLASESSSEGDFSADTSEINSNSDSLNSSSLLMNGLRNNQRKAKRSLAPRFDLPDMKETKYTVDKRFGMDFKEIELIGSGGFGQVFKAKHRIDGKTYVIKRVKYNNEKAEREVKALAKLDHVNIVHYNGCWDGFDYDPETSDDSLESSDYDPENSKNSSRSKTKCLFIQMEFCDKGTLEQWIEKRRGEKLDKVLALELFEQITKGVDYIHSKKLIHRDLKPSNIFLVDTKQVKIGDFGLVTSLKNDGKRTRSKGTLRYMSPEQISSQDYGKEVDLYALGLILAELLHVCDTAFETSKFFTDLRDGIISDIFDKKEKTLLQKLLSKKPEDRPNTSEILRTLTVWKKSPEKNERHTC
notes: also called EIF2AK2; Protein Kinase R

For assay [1], the target named is T1, FLAG-ALIX (full length) (UniProt Q8WUM4 1-868).
T1 construct: also called full-length ALIX; not shown: FLAG tag
T1 sequence (looked up): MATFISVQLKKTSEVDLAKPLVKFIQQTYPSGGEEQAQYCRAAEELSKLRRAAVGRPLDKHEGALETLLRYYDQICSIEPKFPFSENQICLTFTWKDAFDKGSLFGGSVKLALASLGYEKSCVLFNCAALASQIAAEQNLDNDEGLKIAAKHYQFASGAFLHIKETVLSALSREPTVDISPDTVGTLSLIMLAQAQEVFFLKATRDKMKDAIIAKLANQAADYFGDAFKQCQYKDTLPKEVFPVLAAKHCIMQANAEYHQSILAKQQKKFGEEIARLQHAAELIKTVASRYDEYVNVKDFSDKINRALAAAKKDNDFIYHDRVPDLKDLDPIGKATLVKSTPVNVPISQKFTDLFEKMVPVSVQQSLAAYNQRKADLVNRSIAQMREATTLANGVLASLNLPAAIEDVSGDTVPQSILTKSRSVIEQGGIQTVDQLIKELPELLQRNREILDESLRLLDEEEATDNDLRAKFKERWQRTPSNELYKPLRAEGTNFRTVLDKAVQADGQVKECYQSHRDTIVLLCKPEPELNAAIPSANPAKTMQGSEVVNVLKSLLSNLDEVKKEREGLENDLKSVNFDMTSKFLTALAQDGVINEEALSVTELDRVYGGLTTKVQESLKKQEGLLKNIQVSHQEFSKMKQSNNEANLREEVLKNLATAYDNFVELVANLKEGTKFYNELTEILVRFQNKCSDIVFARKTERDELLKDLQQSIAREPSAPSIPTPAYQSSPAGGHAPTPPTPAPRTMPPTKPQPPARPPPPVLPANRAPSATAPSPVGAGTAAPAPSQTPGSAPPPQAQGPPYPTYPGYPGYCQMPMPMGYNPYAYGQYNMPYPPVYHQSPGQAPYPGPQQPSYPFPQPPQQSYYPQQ
As to the kind of experiment: co-IP with anti-FLAG from HEK293T cells expressing FLAG tagged ALIX constructs and Myc-PKR.

The assay “ALIX (cellular)” addresses B5. As to the kind of experiment: confocal microscopy of GFP-PKR/PACT and ALIX in U2OS cells, 2 mM LLOMe.
The next assay has as its target T2, FLAG-eIF2α (UniProt P05198 1-315).
T2 construct: not shown: FLAG tag
As to the kind of experiment: co-IP with anti-FLAG from HEK293T cells, 1 mM LLOMe 30 min.

The target in assay [2] is T1, FLAG-ALIX (full length). The description is as above.
A further assay has as its target T3, FLAG-PKR (UniProt P19525 1-551).
T3 construct: not shown: FLAG tag
As to the kind of experiment: co-IP of FLAG-PKR and PACT in HEK293T cells.

The assay “endogenous PKR” concerns the target B6. As to the kind of experiment: co-IP with anti-GFP from HEK293T cells transfected with FLAG or FLAG-ALIX, 1 mM LLOMe 30 min.
A further assay deals with T4, APEX2-eIF2α (UniProt P05198 1-315).
T4 construct: also called APEX2-eIF2α fusion
As to the kind of experiment: APEX2-eIF2α proximity biotinylation, LC/MS/MS, LLOMe against control.

A value given as a limit tells only on which side of the number the result lay.

T4 sequence (P05198 whole entry, the tested form may be a part): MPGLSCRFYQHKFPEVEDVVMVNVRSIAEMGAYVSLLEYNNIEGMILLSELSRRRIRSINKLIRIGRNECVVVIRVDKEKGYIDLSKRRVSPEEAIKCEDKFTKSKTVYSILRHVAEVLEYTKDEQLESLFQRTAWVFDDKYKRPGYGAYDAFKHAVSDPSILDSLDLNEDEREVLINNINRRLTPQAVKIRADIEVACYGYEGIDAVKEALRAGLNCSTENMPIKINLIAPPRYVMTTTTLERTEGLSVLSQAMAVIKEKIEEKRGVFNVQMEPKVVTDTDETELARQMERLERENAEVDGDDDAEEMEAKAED
T2 sequence (P05198 whole entry): as the sequence (P05198 whole entry, the tested form may be a part) above

Consider B1, for which the binding result in the assay with FLAG-ALIX (full length) [1] is listed as “binds”.
Turning to B2, the binding result with ALIX (cellular) is given as “binds”.
For B3, the binding result in the assay with FLAG-eIF2α, in the assay with FLAG-ALIX (full length) [2] and with FLAG-PKR was “binds” each time.
As to B4, the binding result with ALIX (cellular) and with endogenous PKR was “binds” each time.
Take B5: the “fold increase in association with eIF2α (LLOMe/CTR)” value with APEX2-eIF2α is more than 10 fold.
With B6, the binding result with FLAG-ALIX (full length) [2] is “binds”.

(Values after patent US20240409935A1 (UNM RAINFOREST INNOVATIONS, published 2024).)
